± gives the standard deviation of the averaged measurements.

To fix the notation:
B1: library; numbered along this chain (parent)
chain: MNIQIGELAKRTACPVVTIRFYEQEGLLPPPGRSRGNFRLYGEEHVERLQFIRHCRSLDMPLSDVRTLLSYRKRPDQDCGEVNMLLDEHIRQVESRIGALLELKHHLVELREACSGARPAQSCGILQGLSDCVCDTRGTTAHPSD

The variants in data set [1] derive from B1. Briefly: sfGFP reporter fluorescence (15 h) (µM FITC); higher = higher leak. The note with it: library round: Round 1; ligand: none. The gist of the method:
(§1)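 Linear PbrR templates were made by PCR, normalized to 5 nM with an Echo, and expressed in BL21 Star (DE3) PANOx-SP extract with the pPbrR-sfGFP reporter plasmid and 30 μg/mL GamS. Echo-assembled 1 μL reactions held 1 µM lead chloride, 30 µM zinc acetate or no metal and were incubated 15 hr at 30 °C. Endpoint sfGFP fluorescence was read on a Synergy Neo2 and expressed as µM FITC using standard curves. Up to three biological replicates were run.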

Data set [2] covers variants of B1. Briefly: sfGFP reporter fluorescence (15 h) (µM FITC); higher = stronger transcriptional activation. Conditions: library round: Round 1. The gist of the method: as §1

For N83T C123L, the sfGFP reporter fluorescence in data set [1] amounted to 0.0594 ± 0.0013; in data set [2] (ligand: 1 µM Pb), 0.0586 ± 0.0016; in data set [2] (ligand: 30 µM Zn), 0.059 ± 0.0017.

Consider V46F K104V, for which the sfGFP reporter fluorescence in data set [1] was determined as 0.0666 ± 0.0012; in data set [2] (ligand: 1 µM Pb), 0.103 ± 0.0038; in data set [2] (ligand: 30 µM Zn) it was 0.475 ± 0.047.

As for R111V P143T, the sfGFP reporter fluorescence in data set [1] turned out to be 0.0627 ± 0.002; in data set [2] (ligand: 1 µM Pb) it was 0.0715 ± 0.0029; in data set [2] (ligand: 30 µM Zn), 0.25 ± 0.011.

As for N83S V108N, the sfGFP reporter fluorescence came out at 0.0632 ± 0.0015 in data set [1], 0.0665 ± 0.0043 in data set [2] (ligand: 1 µM Pb) and 0.146 ± 0.0045 in data set [2] (ligand: 30 µM Zn).

Consider K104R D135A, for which the results for the sfGFP reporter fluorescence in data set [1], in data set [2] (ligand: 1 µM Pb) and in data set [2] (ligand: 30 µM Zn) were 0.0652 ± 0.0026, 0.0866 ± 0.004 and 0.368 ± 0.043, respectively.

Take N83T D135A: the sfGFP reporter fluorescence in data set [1] is 0.06316 ± 0.00056; in data set [2] (ligand: 1 µM Pb), 0.0768 ± 0.0015; in data set [2] (ligand: 30 µM Zn), 0.152 ± 0.0032.

For the variant L129V D135A, the sfGFP reporter fluorescence in data set [1] turned out to be 0.0641 ± 0.00097; in data set [2] (ligand: 1 µM Pb), 0.0619 ± 0.003; in data set [2] (ligand: 30 µM Zn), 0.0639 ± 0.0027.

With E81Q, the sfGFP reporter fluorescence in data set [1] came to 0.0605 ± 0.0017; in data set [2] (ligand: 1 µM Pb), 0.0673 ± 0.0016; in data set [2] (ligand: 30 µM Zn), 0.189 ± 0.022.

On to N83T D131S D135A, for which the sfGFP reporter fluorescence in data set [1] was found to be 0.0613 ± 0.0024; in data set [2] (ligand: 1 µM Pb) it was 0.0871 ± 0.0043; in data set [2] (ligand: 30 µM Zn) it was 0.193 ± 0.0075.

For the variant M60L P61N D64K K104V L107E G128I, the sfGFP reporter fluorescence was found to be 0.0622 ± 0.0024 in data set [1], 0.0589 ± 0.0018 in data set [2] (ligand: 1 µM Pb) and 0.0596 ± 0.0016 in data set [2] (ligand: 30 µM Zn).

As for P61A L107C G128M, the sfGFP reporter fluorescence in data set [1] was found to be 1.26 ± 0.063; in data set [2] (ligand: 1 µM Pb), 1.47 ± 0.35; in data set [2] (ligand: 30 µM Zn), 2.25 ± 0.16.

As for M60L D64T L107C, the sfGFP reporter fluorescence came to 0.71 ± 0.032 in data set [1], 0.754 ± 0.061 in data set [2] (ligand: 1 µM Pb) and 2.46 ± 0.078 in data set [2] (ligand: 30 µM Zn).

In the case of I90L D135A, the sfGFP reporter fluorescence stood at 0.0614 ± 0.0011 in data set [1], 0.0634 ± 0.0038 in data set [2] (ligand: 1 µM Pb) and 0.207 ± 0.0065 in data set [2] (ligand: 30 µM Zn).

As to I3M D131C, the sfGFP reporter fluorescence was 0.066 ± 0.0019 in data set [1], 0.102 ± 0.016 in data set [2] (ligand: 1 µM Pb) and 0.446 ± 0.039 in data set [2] (ligand: 30 µM Zn).

As for L85Y K104V, the sfGFP reporter fluorescence in data set [1] was 0.0606 ± 0.0011; in data set [2] (ligand: 1 µM Pb), 0.0629 ± 0.0018; in data set [2] (ligand: 30 µM Zn), 0.223 ± 0.011.

Consider H105E, for which the sfGFP reporter fluorescence in data set [1] turned out to be 0.0625 ± 0.0011; in data set [2] (ligand: 1 µM Pb), 0.06829 ± 0.00056; in data set [2] (ligand: 30 µM Zn) it was 0.31 ± 0.016.

As for I125L D131A D135A, the figures for the sfGFP reporter fluorescence in data set [1], in data set [2] (ligand: 1 µM Pb) and in data set [2] (ligand: 30 µM Zn) were 0.065 ± 0.0029, 0.0661 ± 0.0051 and 0.0699 ± 0.0045, respectively.

For the variant L107C R111L G128M, the sfGFP reporter fluorescence was 0.333 ± 0.022 in data set [1], 1.15 ± 0.33 in data set [2] (ligand: 1 µM Pb) and 2.19 ± 0.32 in data set [2] (ligand: 30 µM Zn).

Take L85I P143M: the figures for the sfGFP reporter fluorescence in data set [1], in data set [2] (ligand: 1 µM Pb) and in data set [2] (ligand: 30 µM Zn) were 0.058 ± 0.0019, 0.0691 ± 0.0018 and 0.401 ± 0.029, respectively.

As for L107C E109Q G128I, the sfGFP reporter fluorescence in data set [1] was found to be 0.54 ± 0.0092; in data set [2] (ligand: 1 µM Pb), 1.09 ± 0.29; in data set [2] (ligand: 30 µM Zn), 2.1 ± 0.28.

Turning to D64K D131L, the results for the sfGFP reporter fluorescence in data set [1], in data set [2] (ligand: 1 µM Pb) and in data set [2] (ligand: 30 µM Zn) were 0.176 ± 0.017, 0.513 ± 0.098 and 1.89 ± 0.093, respectively.

In the case of L126I D135A, the sfGFP reporter fluorescence in data set [1] came out at 0.0632 ± 0.0024; in data set [2] (ligand: 1 µM Pb), 0.064 ± 0.0037; in data set [2] (ligand: 30 µM Zn) it was 0.152 ± 0.0059.

Regarding P61N V108M R111C, the sfGFP reporter fluorescence stood at 0.0735 ± 0.00085 in data set [1], 0.0925 ± 0.013 in data set [2] (ligand: 1 µM Pb) and 0.237 ± 0.0083 in data set [2] (ligand: 30 µM Zn).

Consider E112I D131C, for which the sfGFP reporter fluorescence is 0.06499 ± 0.00042 in data set [1], 0.0652 ± 0.002 in data set [2] (ligand: 1 µM Pb) and 0.083 ± 0.0019 in data set [2] (ligand: 30 µM Zn).

P61N K104V L107E: the results for the sfGFP reporter fluorescence in data set [1], in data set [2] (ligand: 1 µM Pb) and in data set [2] (ligand: 30 µM Zn) were 0.0663 ± 0.0026, 0.0646 ± 0.0037 and 0.06805 ± 0.00056, respectively.

As to K10A V46T C134T, the figures for the sfGFP reporter fluorescence in data set [1], in data set [2] (ligand: 1 µM Pb) and in data set [2] (ligand: 30 µM Zn) were 0.0627 ± 0.0013, 0.0699 ± 0.0061 and 0.226 ± 0.021, respectively.

With P15A P61L, the values for the sfGFP reporter fluorescence in data set [1], in data set [2] (ligand: 1 µM Pb) and in data set [2] (ligand: 30 µM Zn) were 0.0735 ± 0.0017, 0.0722 ± 0.0038 and 0.0794 ± 0.002, respectively.

As to D64L K104V L107R, the sfGFP reporter fluorescence in data set [1] came out at 0.0627 ± 0.0017; in data set [2] (ligand: 1 µM Pb) it was 0.0614 ± 0.0042; in data set [2] (ligand: 30 µM Zn) it was 0.0593 ± 0.0044.

With N83T L107C C114R G128M, the values for the sfGFP reporter fluorescence in data set [1], in data set [2] (ligand: 1 µM Pb) and in data set [2] (ligand: 30 µM Zn) were 0.063 ± 0.0015, 0.0605 ± 0.0029 and 0.06108 ± 0.00021, respectively.

On to N83T V108L D131C P143T, for which the sfGFP reporter fluorescence in data set [1] is 0.06365 ± 0.00056; in data set [2] (ligand: 1 µM Pb), 0.0753 ± 0.002; in data set [2] (ligand: 30 µM Zn), 0.0975 ± 0.0026.

N83T L110W: the sfGFP reporter fluorescence in data set [1] was determined as 0.0601 ± 0.0015; in data set [2] (ligand: 1 µM Pb), 0.0593 ± 0.0024; in data set [2] (ligand: 30 µM Zn), 0.0597 ± 0.00097.

As for V16S P61N, the sfGFP reporter fluorescence in data set [1] came out at 0.074 ± 0.00097; in data set [2] (ligand: 1 µM Pb), 0.114 ± 0.021; in data set [2] (ligand: 30 µM Zn), 0.612 ± 0.11.

On to N83V C134S, for which the sfGFP reporter fluorescence in data set [1] was 0.0579 ± 0.00097; in data set [2] (ligand: 1 µM Pb) it was 0.0667 ± 0.0035; in data set [2] (ligand: 30 µM Zn) it was 0.055 ± 0.00064.

Turning to L100V G128I, the figures for the sfGFP reporter fluorescence in data set [1], in data set [2] (ligand: 1 µM Pb) and in data set [2] (ligand: 30 µM Zn) were 0.0908 ± 0.0036, 0.322 ± 0.035 and 1.24 ± 0.03, respectively.

For the variant N83T D131S P143Y, the sfGFP reporter fluorescence in data set [1] amounted to 0.0614 ± 0.0015; in data set [2] (ligand: 1 µM Pb), 0.0782 ± 0.0092; in data set [2] (ligand: 30 µM Zn) it was 0.144 ± 0.014.

Turning to P30A V46R, the sfGFP reporter fluorescence came out at 0.0618 ± 0.0011 in data set [1], 0.0716 ± 0.0014 in data set [2] (ligand: 1 µM Pb) and 0.298 ± 0.024 in data set [2] (ligand: 30 µM Zn).

For the variant P61T I97N K104V, the sfGFP reporter fluorescence in data set [1] was 0.0652 ± 0.0013; in data set [2] (ligand: 1 µM Pb), 0.0689 ± 0.0055; in data set [2] (ligand: 30 µM Zn), 0.169 ± 0.017.

H142C P143A: the figures for the sfGFP reporter fluorescence in data set [1], in data set [2] (ligand: 1 µM Pb) and in data set [2] (ligand: 30 µM Zn) were 0.0676 ± 0.0022, 0.0772 ± 0.0027 and 0.384 ± 0.03, respectively.

L58F M60L P61N: the figures for the sfGFP reporter fluorescence in data set [1], in data set [2] (ligand: 1 µM Pb) and in data set [2] (ligand: 30 µM Zn) were 0.091 ± 0.002, 0.191 ± 0.051 and 0.61 ± 0.095, respectively.

For N83T E112A, the figures for the sfGFP reporter fluorescence in data set [1], in data set [2] (ligand: 1 µM Pb) and in data set [2] (ligand: 30 µM Zn) were 0.0608 ± 0.0013, 0.0855 ± 0.0018 and 0.194 ± 0.022, respectively.

Take D131T D135Y: the sfGFP reporter fluorescence in data set [1] turned out to be 0.074 ± 0.0013; in data set [2] (ligand: 1 µM Pb), 0.0933 ± 0.014; in data set [2] (ligand: 30 µM Zn), 0.801 ± 0.026.

Regarding M60L D64K K104T, the sfGFP reporter fluorescence in data set [1] is 0.5087 ± 0.0029; in data set [2] (ligand: 1 µM Pb), 1.14 ± 0.23; in data set [2] (ligand: 30 µM Zn) it was 2.22 ± 0.29.

With D64K D135Y, the sfGFP reporter fluorescence in data set [1] was determined as 0.149 ± 0.014; in data set [2] (ligand: 1 µM Pb) it was 0.386 ± 0.028; in data set [2] (ligand: 30 µM Zn), 1.09 ± 0.15.

In the case of D64A K104C, the sfGFP reporter fluorescence in data set [1] amounted to 0.115 ± 0.002; in data set [2] (ligand: 1 µM Pb), 0.342 ± 0.031; in data set [2] (ligand: 30 µM Zn), 1.25 ± 0.076.

Source of the values: the supplement of paper PMC12783771.
